Test results from patent US20120316071A1 (published 2012).
Values belong to the binder of their own block, whether it stands above or below them.

What was measured:
[1] = target: T1, rHuman CD44/Fc Chimera, CF (R&D Systems Cat#3660-CD) (human, UniProt P16070 21-220); assay: MSD Multispot ECL, antigen spotted on plate, Fab in solution; blank spot of the row 337
T1 construct: Bought recombinant Fc chimera; Fc part of the bought chimera not given

[2] = target: T2, rHuman EGF R/Fc Chimera, CF (R&D Systems Cat#344-ER) (human, UniProt P00533 25-645); assay: as above
T2 construct: Bought recombinant Fc chimera; also called epidermal growth factor receptor; Fc part of the bought chimera not given

[3] = target: T3, rHuman P-Cadherin/Fc Chimera, CF (R&D Systems Cat#861-PC) (human, UniProt P22223 108-654); assay: as above
T3 construct: Bought recombinant Fc chimera; Fc part of the bought chimera not given

[4] = target: T4, rHuman HGF R/c-MET/Fc Chimera, CF (R&D Systems Cat#358-MT/CF) (human, UniProt P08581 25-932); assay: as above
T4 construct: Bought recombinant Fc chimera; also called HGF R/Fc; hepatocyte growth factor receptor; Fc part of the bought chimera not given
T4 sequence (P08581 25-932, change not shown): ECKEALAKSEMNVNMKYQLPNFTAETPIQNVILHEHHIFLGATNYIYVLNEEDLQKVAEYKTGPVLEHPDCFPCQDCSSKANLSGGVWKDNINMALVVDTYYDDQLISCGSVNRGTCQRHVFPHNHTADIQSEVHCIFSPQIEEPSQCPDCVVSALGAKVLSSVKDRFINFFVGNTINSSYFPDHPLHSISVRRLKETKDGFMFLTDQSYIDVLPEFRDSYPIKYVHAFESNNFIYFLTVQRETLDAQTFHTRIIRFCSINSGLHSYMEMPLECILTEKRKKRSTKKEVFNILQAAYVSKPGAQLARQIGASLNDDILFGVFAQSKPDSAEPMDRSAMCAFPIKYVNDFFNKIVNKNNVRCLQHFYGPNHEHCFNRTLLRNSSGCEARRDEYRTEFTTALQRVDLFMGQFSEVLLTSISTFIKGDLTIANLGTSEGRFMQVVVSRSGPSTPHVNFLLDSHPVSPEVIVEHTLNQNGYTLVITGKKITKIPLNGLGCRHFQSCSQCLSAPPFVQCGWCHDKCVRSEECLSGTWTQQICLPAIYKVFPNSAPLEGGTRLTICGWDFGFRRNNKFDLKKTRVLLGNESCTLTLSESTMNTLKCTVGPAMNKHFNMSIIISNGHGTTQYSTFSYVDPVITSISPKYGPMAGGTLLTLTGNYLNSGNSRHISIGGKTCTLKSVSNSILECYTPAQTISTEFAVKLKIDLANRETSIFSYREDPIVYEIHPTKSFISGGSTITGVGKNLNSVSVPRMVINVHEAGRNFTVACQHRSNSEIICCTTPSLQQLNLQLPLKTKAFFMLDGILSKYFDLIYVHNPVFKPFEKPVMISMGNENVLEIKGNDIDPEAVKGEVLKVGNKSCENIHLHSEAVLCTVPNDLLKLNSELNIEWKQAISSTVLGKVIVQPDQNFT

[5] = target: T5, rHuman Erythropoietin R/Fc Chimera, CF (R&D Systems Cat#963-ER) (human, UniProt P19235 25-250); assay: as above
T5 construct: Bought recombinant Fc chimera; also called EPO R; EPO R/Fc; Fc part of the bought chimera not given
T5 sequence (looked up): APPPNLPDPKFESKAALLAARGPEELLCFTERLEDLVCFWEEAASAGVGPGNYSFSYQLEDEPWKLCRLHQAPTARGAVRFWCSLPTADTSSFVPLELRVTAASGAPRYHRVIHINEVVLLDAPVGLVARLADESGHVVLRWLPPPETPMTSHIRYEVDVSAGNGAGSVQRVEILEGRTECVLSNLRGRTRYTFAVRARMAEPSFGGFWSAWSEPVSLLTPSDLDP

[6] = target: T6, Recombinant Human DLL4 (R&D Systems Cat#1506-D4/CF) (human, UniProt Q9NR61 27-524); assay: as above
T6 construct: Bought recombinant protein; also called delta-like protein 4; Delta-like 4

[7] = target: T7, rHuman Notch-1/Fc Chimera, CF (R&D Systems Cat#3647-TK) (human, UniProt P46531 19-526); assay: as above
T7 construct: Bought recombinant Fc chimera; Fc part of the bought chimera not given

[8] = target: T2, rHuman EGF R/Fc Chimera, CF (R&D …); assay: MSD Multispot ECL, antigen spotted on plate, Fab in solution; blank spot of the row 300
[9] = target: T3, rHuman P-Cadherin/Fc Chimera, CF (R&D …); assay: as above
[10] = target: T4, rHuman HGF R/c-MET/Fc Chimera, CF (R&D …); assay: as above
[11] = target: T5, rHuman Erythropoietin R/Fc Chimera, CF …; assay: as above
[12] = target: T7, rHuman Notch-1/Fc Chimera, CF (R&D …); assay: as above
[13] = target: T1, rHuman CD44/Fc Chimera, CF (R&D Systems …); assay: MSD Multispot ECL, antigen spotted on plate, Fab in solution; blank spot of the row 316
[14] = target: T2, rHuman EGF R/Fc Chimera, CF (R&D …); assay: as above
[15] = target: T3, rHuman P-Cadherin/Fc Chimera, CF (R&D …); assay: as above
[16] = target: T4, rHuman HGF R/c-MET/Fc Chimera, CF (R&D …); assay: as above
[17] = target: T5, rHuman Erythropoietin R/Fc Chimera, CF …; assay: as above
[18] = target: T6, Recombinant Human DLL4 (R&D Systems …); assay: as above
[19] = target: T7, rHuman Notch-1/Fc Chimera, CF (R&D …); assay: as above
[20] = target: T1, rHuman CD44/Fc Chimera, CF (R&D Systems …); assay: MSD Multispot ECL, antigen spotted on plate, Fab in solution; blank spot of the row 351
[21] = target: T2, rHuman EGF R/Fc Chimera, CF (R&D …); assay: as above
[22] = target: T3, rHuman P-Cadherin/Fc Chimera, CF (R&D …); assay: as above
[23] = target: T4, rHuman HGF R/c-MET/Fc Chimera, CF (R&D …); assay: as above
[24] = target: T5, rHuman Erythropoietin R/Fc Chimera, CF …; assay: as above
[25] = target: T6, Recombinant Human DLL4 (R&D Systems …); assay: as above
[26] = target: T7, rHuman Notch-1/Fc Chimera, CF (R&D …); assay: as above
[27] = target: T2, rHuman EGF R/Fc Chimera, CF (R&D …); assay: MSD Multispot ECL, antigen spotted on plate, Fab in solution; blank spot of the row 297
[28] = target: T3, rHuman P-Cadherin/Fc Chimera, CF (R&D …); assay: as above
[29] = target: T4, rHuman HGF R/c-MET/Fc Chimera, CF (R&D …); assay: as above
[30] = target: T5, rHuman Erythropoietin R/Fc Chimera, CF …; assay: as above
[31] = target: T6, Recombinant Human DLL4 (R&D Systems …); assay: as above
[32] = target: T7, rHuman Notch-1/Fc Chimera, CF (R&D …); assay: as above

ECL signal [1]: 621
ECL signal [2]: 887
ECL signal [3]: 502
ECL signal [4]: 985
ECL signal [5]: 586
ECL signal [6]: 22900
ECL signal [7]: 601
B1: Fab VH5-51_IGHD5-18*01>3_IGHJ4*01 G100K/G104T F29A & V3-4_IGLJ1*01 (Fab, V domains shown)
VH: EVQLVQSGAEVKKPGESLKISCKGSGYSATSYWIGWVRQMPGKGLEWMGIIYPGDSDTRYSPSFQGQVTISADKSISTAYLQWSSLKASDTAMYYCARRKYSYTYDYFDYWGQGTLVTVSS
VL: QTVVTQEPSFSVSPGGTVTLTCGLSSGSVSTSYYPSWYQQTPGQAPRTLIYSTNTRSSGVPDRFSGSILGNKAALTITGAQADDESDYYCVLYMGSGISYVFGTGTKVTVL
notes: Fab made in E. coli; VH cloned into Plasmid A (CH1, His6 and Flag tags), lambda VL into Plasmid E (lambda CL); also called KT F29A

ECL signal [8]: 883
ECL signal [9]: 349
ECL signal [10]: 1080
ECL signal [11]: 505
ECL signal [12]: 564
B2: Fab VH5-51_IGHD5-18*01>3_IGHJ4*01 G100K/G104T I34A & V3-4_IGLJ1*01 (Fab, V domains shown)
VH: EVQLVQSGAEVKKPGESLKISCKGSGYSFTSYWAGWVRQMPGKGLEWMGIIYPGDSDTRYSPSFQGQVTISADKSISTAYLQWSSLKASDTAMYYCARRKYSYTYDYFDYWGQGTLVTVSS
VL: QTVVTQEPSFSVSPGGTVTLTCGLSSGSVSTSYYPSWYQQTPGQAPRTLIYSTNTRSSGVPDRFSGSILGNKAALTITGAQADDESDYYCVLYMGSGISYVFGTGTKVTVL
notes: Fab made in E. coli; VH cloned into Plasmid A (CH1, His6 and Flag tags), lambda VL into Plasmid E (lambda CL); also called KT I34A

ECL signal [13]: 497
ECL signal [14]: 839
ECL signal [15]: 317
ECL signal [16]: 1040
ECL signal [17]: 586
ECL signal [18]: 35400
ECL signal [19]: 432
B3: Fab VH5-51_IGHD5-18*01>3_IGHJ4*01 G100K/G104T S28A & V3-4_IGLJ1*01 (Fab, V domains shown)
VH: EVQLVQSGAEVKKPGESLKISCKGSGYAFTSYWIGWVRQMPGKGLEWMGIIYPGDSDTRYSPSFQGQVTISADKSISTAYLQWSSLKASDTAMYYCARRKYSYTYDYFDYWGQGTLVTVSS
VL: QTVVTQEPSFSVSPGGTVTLTCGLSSGSVSTSYYPSWYQQTPGQAPRTLIYSTNTRSSGVPDRFSGSILGNKAALTITGAQADDESDYYCVLYMGSGISYVFGTGTKVTVL
notes: Fab made in E. coli; VH cloned into Plasmid A (CH1, His6 and Flag tags), lambda VL into Plasmid E (lambda CL); also called KT S28A

ECL signal [20]: 698
ECL signal [21]: 853
ECL signal [22]: 438
ECL signal [23]: 868
ECL signal [24]: 553
ECL signal [25]: 24300
ECL signal [26]: 539
B4: Fab VH5-51_IGHD5-18*01>3_IGHJ4*01 G100K/G104T T30A & V3-4_IGLJ1*01 (Fab, V domains shown)
VH: EVQLVQSGAEVKKPGESLKISCKGSGYSFASYWIGWVRQMPGKGLEWMGIIYPGDSDTRYSPSFQGQVTISADKSISTAYLQWSSLKASDTAMYYCARRKYSYTYDYFDYWGQGTLVTVSS
VL: QTVVTQEPSFSVSPGGTVTLTCGLSSGSVSTSYYPSWYQQTPGQAPRTLIYSTNTRSSGVPDRFSGSILGNKAALTITGAQADDESDYYCVLYMGSGISYVFGTGTKVTVL
notes: Fab made in E. coli; VH cloned into Plasmid A (CH1, His6 and Flag tags), lambda VL into Plasmid E (lambda CL); also called KT T30A

ECL signal [27]: 760
ECL signal [28]: 305
ECL signal [29]: 939
ECL signal [30]: 506
ECL signal [31]: 53600
ECL signal [32]: 400
B5: Fab VH5-51_IGHD5-18*01>3_IGHJ4*01 G100K/G104T G35A & V3-4_IGLJ1*01 (Fab, V domains shown)
VH: EVQLVQSGAEVKKPGESLKISCKGSGYSFTSYWIAWVRQMPGKGLEWMGIIYPGDSDTRYSPSFQGQVTISADKSISTAYLQWSSLKASDTAMYYCARRKYSYTYDYFDYWGQGTLVTVSS
VL: QTVVTQEPSFSVSPGGTVTLTCGLSSGSVSTSYYPSWYQQTPGQAPRTLIYSTNTRSSGVPDRFSGSILGNKAALTITGAQADDESDYYCVLYMGSGISYVFGTGTKVTVL
notes: Fab made in E. coli; VH cloned into Plasmid A (CH1, His6 and Flag tags), lambda VL into Plasmid E (lambda CL); also called KT G35A
